Results as given in patent US20030215450A1 (published 2003).
One block for each binder: values may come before it.

Legend:
[1] = molecular target: T1, soluble human RANKL protein (human, UniProt O14788 140-317, limits assumed, biotinylated with NHS-biotin at a 20:1 molar ratio of NHS-biotin to protein (competition ELISA only)); experiment: competition ELISA: biotinylated shRANKL (0.43 nM) binding to coated RANK-Fc, competitor in solution
T1 construct: Soluble form; also called shRANKL; sRANKL
T1 sequence (looked up): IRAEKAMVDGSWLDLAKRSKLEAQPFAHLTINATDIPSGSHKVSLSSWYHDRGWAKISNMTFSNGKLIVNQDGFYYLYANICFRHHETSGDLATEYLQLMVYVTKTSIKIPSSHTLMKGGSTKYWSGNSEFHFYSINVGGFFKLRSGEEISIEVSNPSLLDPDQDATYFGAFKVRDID
Source text: A. A competition ELISA was established using a human RANK-Fc fusion protein coated on plastic and a biotinylated soluble human RANKL protein for detection in solution. The RANK-Fc and RANKL proteins were produced in CHO cells and Pichia pastoris, respectively, and purified to >90% homogeneity. The shRANKL (soluble, human RANKL) protein was biotinylated at a 20:1 molar ratio of NHS-biotin to protein (Pierce, Rockford, Ill.) according to the manufacturer's specifications. 96-well ELISA plates were coated overnight at 4° C. with 50 ng/well […] RANK-Fc in pH 9.6 carbonate-bicarbonate buffer. Plates were washed in pH 7.4 Tris-Saline buffer containing 0.1% Tween 20 and blocked for 2 h at RT in 1% BSA/PBS. Competitor proteins (RANK-Fc; death receptor 5 (DR5)-Fc; OPG-Fc; RANKL mAb 2A4) were diluted in 0.01% Tween 20/PBS and added to wells prior to the addition of biotinylated shRANKL (0.43 nM) and the combined samples were incubated for 2 hrs at room temperature. The amount of biotinylated shRANKL bound to coated RANK-Fc (±competitor) was measured using alkaline phosphatase conjugated streptavidin. The substrate for signal detection was 105 PNPP (Pierce Inc., Rockford, Ill.) and absorbance measured at 405 nm using a Spectra Max 340 plate reader.

murine RANK-L = molecular target: T2, murine RANK-L (murine, UniProt O35235 158-316, limits assumed); experiment: not described
T2 sequence (looked up): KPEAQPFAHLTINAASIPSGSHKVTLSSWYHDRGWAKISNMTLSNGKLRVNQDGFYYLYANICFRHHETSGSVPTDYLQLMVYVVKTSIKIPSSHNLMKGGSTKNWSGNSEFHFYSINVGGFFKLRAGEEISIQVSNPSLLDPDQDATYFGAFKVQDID

[2] = molecular target: T1, soluble human RANKL protein; experiment: cell-based or functional assay
[3] = molecular target: T1, soluble human RANKL protein; experiment: not described with the number; paragraph 33 defines high affinity as determined by optical biosensor analysis

IC50 [1]: ~0.5 nM
B1: OPG-Fc (Fc fusion, UniProt O00300 22-194, looked up)
chain: ETFPPKYLHYDEETSHQLLCDKCPPGTYLKQHCTAKWKTVCAPCPDHYYTDSWHTSDECLYCSPVCKELQYVKQECNRTHNRVCECKEGRYLEIEFCLKHRSCPPGFGVVQAGTPERNTVCKRCPDGFFSNETSSKAPCRKHTNCSVFGLLLTQKGNATHDNICSGNSESTQK
notes: Construct not described; also called osteoprotegerin-Fc; not shown: Fc part; not described

binding result (murine RANK-L): no binding
IC50 [1]: ~2 nM
Kd [3]: ~0.1 nM
B2: mouse monoclonal antibody 2A4 (antibody, mouse IgG2a, V domains shown)
VH: EVQLVESGGDLVKPGGSLKLSCAASGFTFSRYGMSWVRQTPDKRLEWVATISSGGSYIYYPDSVKGRFTISRDNAKNTLYLQMSSLKSEDTAMYYCARLDGYNYRWYFDVWGTGTTVTVSS
VL: DIVMTQSHKFMSTSVGDRVSITCKASQDVSTAVAWYQQKPGQSPKLLIYSASYRYTGVPDRFTGSGSGTDFTFTISSVQAEDLAVYYCQQHYSSPRTFGGGTNLEIK
notes: the latter are followed; also called mAb 2A4; 2A4 Mab
IC50, formation of multinuclear cells, human monocyte osteoclastogenesis with 50 ng/ml human soluble RANKL plus M-CSF [2]: ~4 µg/mL

IC50 [1]: ~6 nM
B3: human RANK-Fc fusion protein (Fc fusion, UniProt Q9Y6Q6 30-212, looked up)
chain: IAPPCTSEKHYEHLGRCCNKCEPGKYMSSKCTTTSDSVCLPCGPDEYLDSWNEEDKCLLHKVCDTGKALVAVVAGNSTTPRRCACTAGYHWSQDCECCRRNTECAPGLGAQHPLQLNKDTVCKPCLAGYFSDAFSSTDKCRPWTNCTFLGKRVEHHGTEKSDAVCSSSLPARKPPNEPHVYLP
notes: Produced in CHO cells; not shown: Fc part
IC50, formation of multinuclear cells, human monocyte osteoclastogenesis with 50 ng/ml human soluble RANKL plus M-CSF [2]: ~0.5 µg/mL
